Experimental data taken from patent US20030194411A1.

Experiments:
[1] = biological target: MN-PND peptide … (HIV-1 MN strain); assay: MN-PND ELISA, serum 1:2500, day 0
[2] = biological target: MN-PND peptide … (HIV-1 MN strain); assay: MN-PND ELISA, serum 1:500, day 0
[3] = biological target: MN-PND peptide … (HIV-1 MN strain); assay: MN-PND ELISA, serum 1:1000, day 0
[4] = biological target: MN-PND peptide … (HIV-1 MN strain); assay: MN-PND ELISA, serum 1:20, day 0
[5] = biological target: MN-PND peptide … (HIV-1 MN strain); assay: MN-PND ELISA, serum 1:100, day 0

Substance: guinea pig serum sample 0 (day 0, Example V) (antibody)
- O.D. [1]: 0.04 O.D.
- O.D. [2]: 0.05 O.D.
- O.D. [3]: 0.05 O.D.
- O.D. [4]: 0.15 O.D.
- O.D. [5]: 0.07 O.D.
